Experiments:
[1] = molecular target: GST-RelA(1-313) (NF-kB p65, DNA binding and IkBa interactive domain) (UniProt Q04206 Q04206:1-313); test: filter; variable region alone sufficient for binding; data not shown; competition and direct binding; settings: tags: GST; chain copies: 2
Method: Binding Studies: (i) Nitrocellulose filter binding assay: Filter binding assays were performed as described (22). Initially, 70 mer oligonucleotides were commercially synthesized (IDT) to include the proximal 20 bases of each flanking primer sequence and the 30 base variable region. DNAs were 5′ end-labeled with ³²P-ATP using T4-PNK (New England Biolabs) and purified by glass bead binding using a MERMAID kit (MP Biomedicals LLC). Protein and labeled aptamer were incubated in ABB and filtered through 25 mm nitrocellulose filters. The bound material was counted in a Beckman Liquid Scintillation counter. For competition studies, binding reactions (100 μL) in ABB were incubated at RT for 20 min with 100 fold excess (10 picomoles) of unlabeled competitor DNAs, followed by the addition of 0.1 picomole of ³²P-labeled KB55 probe. After 30 min of incubation, reactions were filtered and counted. The KB55 sequence is […] (SEQ ID NO: 3) and self anneals to form a duplex. Upper and lower strands of IL8KB are […] (SEQ ID NO: 4) and […] (SEQ ID NO: 5), respectively.
Isolation of RelA(1-313) binding single stranded aptamer: Purified recombinant GST-RelA(1-313), encoding the DNA binding and IκBα interactive domain, was used to screen for high affinity ssDNA aptamers by repeated rounds of in vitro binding and enrichment. […]

[2] = molecular target: endogenous RelA in A549 cells (Homo sapiens, UniProt Q04206 Q04206:1-551); test: cell_activity; 4 uM transfected aptamer; control induction 5-fold (Gro-beta) and nearly 7-fold (TNFAIP3)
Method: A549 cells transfected with nothing (−), 4 μM P028A1 or P028F4 aptamers were stimulated in the absence (Con) or presence of TNF. (1 h, 30 ng/ml). Total RNA was extracted and subjected to Q-RT-PCR for Gro-β (top panel) and TNFAIP3/A20 (bottom panel). Data are normalized to GAPDH and expressed as fold change relative to uninfected control. Each bar is mean±SD of triplicate determination. * p<0.05 and (4B) ChIP assay. A549 cells transfected with nothing (−), P028A1 (4 μM) or P028F4 (4 μM) were stimulated in the absence (Con) or presence of TNF (1 h, 30 ng/ml). Two-step ChIP was preformed using pre-immune IgG (IgG), or anti-RelA as the primary Abs. Immunoprecipitated DNA was subjected to quantitative PCR using primers for Groβ (top) or TNFAIP3/A20 promoters (bottom) as indicated. Data are shown as fold increase in signal relative to unstimulated A549 cells (X, ±SD of technical replicates). The study was repeated twice with similar results;
Aptamer P028F4 inhibits TNFα-induced endogenous NF-κB dependent gene expression: Earlier studies selectively inhibiting NF-κB/RelA translocation identified Groβ and TNFAIP3/A20 as part of a TNFα inducible gene network downstream of NF-κB (3,4,39). […] Relative changes in Groβ and TNFAIP3/A20 transcripts were determined by Q-RT-PCR. […]

endogenous RelA in A549 cells, sequence (Q04206 whole entry, one chain of several): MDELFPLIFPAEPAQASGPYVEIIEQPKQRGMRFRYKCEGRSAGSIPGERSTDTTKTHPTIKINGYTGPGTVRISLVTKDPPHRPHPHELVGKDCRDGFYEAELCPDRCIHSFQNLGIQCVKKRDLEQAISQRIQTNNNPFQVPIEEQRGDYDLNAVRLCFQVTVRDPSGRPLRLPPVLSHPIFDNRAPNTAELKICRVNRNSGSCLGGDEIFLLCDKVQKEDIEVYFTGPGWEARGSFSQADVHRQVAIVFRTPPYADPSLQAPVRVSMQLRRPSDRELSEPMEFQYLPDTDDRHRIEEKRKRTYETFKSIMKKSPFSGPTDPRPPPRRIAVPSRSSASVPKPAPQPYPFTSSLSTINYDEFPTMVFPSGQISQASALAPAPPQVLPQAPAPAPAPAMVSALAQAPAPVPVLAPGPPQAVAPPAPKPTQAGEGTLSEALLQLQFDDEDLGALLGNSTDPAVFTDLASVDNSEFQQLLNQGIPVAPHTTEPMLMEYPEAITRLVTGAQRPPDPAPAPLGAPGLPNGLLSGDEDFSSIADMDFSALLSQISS
GST-RelA(1-313) (NF-kB p65, DNA binding and IkBa interactive domain), sequence (Q04206 1-313, one chain of several): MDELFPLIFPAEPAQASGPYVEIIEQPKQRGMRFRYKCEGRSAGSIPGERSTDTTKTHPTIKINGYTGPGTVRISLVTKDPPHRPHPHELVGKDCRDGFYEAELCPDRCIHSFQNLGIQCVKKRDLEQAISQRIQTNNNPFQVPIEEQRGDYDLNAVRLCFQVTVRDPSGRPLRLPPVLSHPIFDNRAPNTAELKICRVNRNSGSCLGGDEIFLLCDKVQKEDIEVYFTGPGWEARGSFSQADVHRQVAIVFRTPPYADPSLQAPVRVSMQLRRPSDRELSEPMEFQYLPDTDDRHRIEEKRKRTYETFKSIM

Row | Binder | binding result [1] | activity [2]
1 | GCGGGACAGGAGAAACACGGCATGTCAGCG (ssDNA) [P028F4 30-base variable region] | binds | –
2 | P028F4 (ssDNA) DNA: GGGTAACCTTGAGTCACGAATTCAAGCGGGACAGGAGAAACACGGCATGTCAGCGAAGGTACCCAACTTACAGCTTCTGG | – | < 2 fold induction of Gro-beta and TNFAIP3 mRNA

— patent publication US20120263651, “Single Stranded DNA Aptamers Binding NF-kB/RelA” (Board of Regents, The University of Texas System, published 2012)
